Legend:
Test in all cases: pulldown; 150 mM NaCl, 50 mM Tris pH 8, 0.25% NP-40, 1 mM TCEP; 4 C, 2 h; 100 ug HeLa nuclear lysate
Conditions in all cases: protein: extract; label: 5' biotin (strand 1)
BBX = target: T1, BBX (Homo sapiens, UniProt Q8WY36)
T1 sequence: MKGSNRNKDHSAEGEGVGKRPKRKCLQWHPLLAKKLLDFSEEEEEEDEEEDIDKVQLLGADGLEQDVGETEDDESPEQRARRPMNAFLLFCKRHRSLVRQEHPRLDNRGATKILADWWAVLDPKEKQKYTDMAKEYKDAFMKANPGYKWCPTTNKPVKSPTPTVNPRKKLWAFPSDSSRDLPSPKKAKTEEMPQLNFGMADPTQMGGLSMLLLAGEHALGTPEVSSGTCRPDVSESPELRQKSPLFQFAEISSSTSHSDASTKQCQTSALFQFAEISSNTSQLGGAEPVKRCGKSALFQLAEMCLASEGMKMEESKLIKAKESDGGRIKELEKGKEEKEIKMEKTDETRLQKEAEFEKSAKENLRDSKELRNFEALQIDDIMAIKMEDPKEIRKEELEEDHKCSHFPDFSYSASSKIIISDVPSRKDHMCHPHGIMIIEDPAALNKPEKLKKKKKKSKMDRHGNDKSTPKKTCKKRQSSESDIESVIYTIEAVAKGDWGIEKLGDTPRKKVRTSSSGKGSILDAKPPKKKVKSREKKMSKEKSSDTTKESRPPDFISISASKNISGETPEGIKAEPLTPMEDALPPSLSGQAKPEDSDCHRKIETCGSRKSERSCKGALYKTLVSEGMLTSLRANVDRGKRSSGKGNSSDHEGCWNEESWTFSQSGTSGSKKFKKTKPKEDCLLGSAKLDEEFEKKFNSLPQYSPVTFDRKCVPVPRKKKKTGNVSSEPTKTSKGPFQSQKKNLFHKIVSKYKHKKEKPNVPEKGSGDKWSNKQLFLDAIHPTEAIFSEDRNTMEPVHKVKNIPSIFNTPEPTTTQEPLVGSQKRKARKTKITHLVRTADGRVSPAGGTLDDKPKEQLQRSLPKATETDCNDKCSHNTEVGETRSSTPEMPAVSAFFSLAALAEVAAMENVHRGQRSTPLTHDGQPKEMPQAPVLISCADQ

FOXL2 = target: T2, FOXL2 (Homo sapiens, UniProt P58012)
T2 sequence: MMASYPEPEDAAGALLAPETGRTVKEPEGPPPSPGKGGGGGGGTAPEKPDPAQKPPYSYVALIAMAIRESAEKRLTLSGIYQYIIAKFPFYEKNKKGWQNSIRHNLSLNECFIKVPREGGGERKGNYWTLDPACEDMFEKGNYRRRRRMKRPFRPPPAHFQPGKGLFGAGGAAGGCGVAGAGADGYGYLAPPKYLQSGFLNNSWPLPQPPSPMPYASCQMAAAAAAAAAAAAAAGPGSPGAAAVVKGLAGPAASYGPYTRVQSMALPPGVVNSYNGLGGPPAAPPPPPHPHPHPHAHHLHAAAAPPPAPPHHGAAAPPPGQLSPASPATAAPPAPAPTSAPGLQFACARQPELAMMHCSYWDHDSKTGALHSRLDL

RBPJ = RBPJ (Homo sapiens, UniProt Q06330)
NFIA = NFIA (Homo sapiens, UniProt Q12857)
ZBTB7B = ZBTB7B (Homo sapiens, UniProt O15156)
KLF10 = KLF10 (Homo sapiens, UniProt Q13118)
KLF3 = KLF3 (Homo sapiens, UniProt P57682)
GLIS2 = target: T3, GLIS2 (Homo sapiens, UniProt Q9BZE0)
T3 sequence: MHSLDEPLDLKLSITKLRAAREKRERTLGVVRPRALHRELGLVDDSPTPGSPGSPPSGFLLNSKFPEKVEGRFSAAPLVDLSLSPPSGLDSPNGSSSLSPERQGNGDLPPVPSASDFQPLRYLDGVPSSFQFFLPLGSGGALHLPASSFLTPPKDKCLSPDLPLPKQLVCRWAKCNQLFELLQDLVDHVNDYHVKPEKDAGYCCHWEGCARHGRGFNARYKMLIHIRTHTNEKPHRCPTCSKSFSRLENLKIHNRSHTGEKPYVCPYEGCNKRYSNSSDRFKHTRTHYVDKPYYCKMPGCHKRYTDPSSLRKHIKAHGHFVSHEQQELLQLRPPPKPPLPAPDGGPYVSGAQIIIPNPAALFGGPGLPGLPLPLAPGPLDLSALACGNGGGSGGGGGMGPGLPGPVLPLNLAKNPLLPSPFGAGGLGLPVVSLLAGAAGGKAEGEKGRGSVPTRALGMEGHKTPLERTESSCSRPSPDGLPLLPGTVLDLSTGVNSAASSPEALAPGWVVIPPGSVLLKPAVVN

SP3 = SP3 (Homo sapiens, UniProt Q02447)
Chain of SP3 (Q02447 whole entry): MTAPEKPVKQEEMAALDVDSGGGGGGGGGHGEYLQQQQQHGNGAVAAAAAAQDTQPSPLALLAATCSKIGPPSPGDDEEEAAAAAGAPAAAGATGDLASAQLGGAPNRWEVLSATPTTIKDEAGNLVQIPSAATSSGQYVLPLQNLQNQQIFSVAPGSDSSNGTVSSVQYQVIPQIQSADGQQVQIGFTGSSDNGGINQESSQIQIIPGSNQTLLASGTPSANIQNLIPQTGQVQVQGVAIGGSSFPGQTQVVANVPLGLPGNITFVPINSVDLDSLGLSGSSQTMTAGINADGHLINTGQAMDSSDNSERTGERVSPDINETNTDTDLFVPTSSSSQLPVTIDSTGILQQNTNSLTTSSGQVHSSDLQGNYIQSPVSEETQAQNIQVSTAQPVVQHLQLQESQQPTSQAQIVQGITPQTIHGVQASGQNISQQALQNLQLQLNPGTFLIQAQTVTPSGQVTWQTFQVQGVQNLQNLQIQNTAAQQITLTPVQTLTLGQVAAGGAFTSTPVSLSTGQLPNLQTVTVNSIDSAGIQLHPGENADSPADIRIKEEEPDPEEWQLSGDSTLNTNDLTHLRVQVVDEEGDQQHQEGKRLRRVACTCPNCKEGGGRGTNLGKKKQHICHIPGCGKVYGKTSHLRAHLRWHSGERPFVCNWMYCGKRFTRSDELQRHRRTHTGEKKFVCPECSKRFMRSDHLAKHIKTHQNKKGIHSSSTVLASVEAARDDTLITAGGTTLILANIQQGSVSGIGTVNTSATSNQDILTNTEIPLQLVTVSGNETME

Chain of ZBTB7B (O15156 whole entry): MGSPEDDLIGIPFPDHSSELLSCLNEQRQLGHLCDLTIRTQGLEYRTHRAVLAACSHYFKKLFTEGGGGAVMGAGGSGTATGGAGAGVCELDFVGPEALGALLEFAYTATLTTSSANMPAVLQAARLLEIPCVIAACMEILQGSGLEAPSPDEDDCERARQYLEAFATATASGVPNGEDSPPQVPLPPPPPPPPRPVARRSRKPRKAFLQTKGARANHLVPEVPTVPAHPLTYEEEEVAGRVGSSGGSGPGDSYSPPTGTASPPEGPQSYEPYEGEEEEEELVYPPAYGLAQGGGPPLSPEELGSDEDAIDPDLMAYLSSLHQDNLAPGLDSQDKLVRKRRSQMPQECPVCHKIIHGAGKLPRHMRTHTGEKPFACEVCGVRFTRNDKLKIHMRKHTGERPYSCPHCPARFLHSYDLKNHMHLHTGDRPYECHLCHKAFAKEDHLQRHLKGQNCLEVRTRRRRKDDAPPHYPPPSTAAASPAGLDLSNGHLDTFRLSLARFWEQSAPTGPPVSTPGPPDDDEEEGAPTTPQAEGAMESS
Chain of RBPJ (Q06330 whole entry): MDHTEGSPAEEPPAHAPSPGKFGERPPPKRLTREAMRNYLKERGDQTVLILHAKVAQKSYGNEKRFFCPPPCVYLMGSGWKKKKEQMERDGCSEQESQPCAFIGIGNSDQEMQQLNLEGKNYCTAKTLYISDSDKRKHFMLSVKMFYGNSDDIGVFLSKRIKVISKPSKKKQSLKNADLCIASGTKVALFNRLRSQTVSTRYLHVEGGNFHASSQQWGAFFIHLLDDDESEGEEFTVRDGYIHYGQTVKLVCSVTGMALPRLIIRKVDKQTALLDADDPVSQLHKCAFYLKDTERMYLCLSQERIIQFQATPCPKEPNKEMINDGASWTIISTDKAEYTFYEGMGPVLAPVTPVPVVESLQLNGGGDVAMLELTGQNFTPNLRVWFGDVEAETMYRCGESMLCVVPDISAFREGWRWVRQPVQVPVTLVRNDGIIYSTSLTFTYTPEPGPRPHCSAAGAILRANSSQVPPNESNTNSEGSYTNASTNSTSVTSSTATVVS
Chain of KLF3 (P57682 whole entry): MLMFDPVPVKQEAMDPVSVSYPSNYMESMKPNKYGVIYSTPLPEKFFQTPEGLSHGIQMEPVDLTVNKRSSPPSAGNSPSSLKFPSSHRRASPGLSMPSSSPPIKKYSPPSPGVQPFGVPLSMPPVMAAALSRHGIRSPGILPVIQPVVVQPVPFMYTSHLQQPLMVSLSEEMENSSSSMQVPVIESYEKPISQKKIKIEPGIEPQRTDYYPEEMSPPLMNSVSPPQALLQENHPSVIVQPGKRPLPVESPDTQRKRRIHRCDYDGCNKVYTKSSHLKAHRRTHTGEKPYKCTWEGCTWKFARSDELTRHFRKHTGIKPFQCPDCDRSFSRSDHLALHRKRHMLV
Chain of NFIA (Q12857 whole entry): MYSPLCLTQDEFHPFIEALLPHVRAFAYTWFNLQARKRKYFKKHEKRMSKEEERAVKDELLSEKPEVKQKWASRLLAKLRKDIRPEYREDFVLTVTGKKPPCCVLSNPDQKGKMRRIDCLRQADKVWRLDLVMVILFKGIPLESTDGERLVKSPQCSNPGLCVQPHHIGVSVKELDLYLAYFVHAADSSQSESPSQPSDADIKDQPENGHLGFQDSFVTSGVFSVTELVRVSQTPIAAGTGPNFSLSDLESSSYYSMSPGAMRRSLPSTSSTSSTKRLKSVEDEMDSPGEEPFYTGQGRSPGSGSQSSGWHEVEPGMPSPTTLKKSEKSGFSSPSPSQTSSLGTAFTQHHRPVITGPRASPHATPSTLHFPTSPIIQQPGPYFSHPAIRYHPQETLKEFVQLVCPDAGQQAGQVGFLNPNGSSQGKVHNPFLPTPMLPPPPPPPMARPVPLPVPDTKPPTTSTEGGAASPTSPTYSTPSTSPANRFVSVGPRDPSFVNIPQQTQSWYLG
Chain of KLF10 (Q13118 whole entry): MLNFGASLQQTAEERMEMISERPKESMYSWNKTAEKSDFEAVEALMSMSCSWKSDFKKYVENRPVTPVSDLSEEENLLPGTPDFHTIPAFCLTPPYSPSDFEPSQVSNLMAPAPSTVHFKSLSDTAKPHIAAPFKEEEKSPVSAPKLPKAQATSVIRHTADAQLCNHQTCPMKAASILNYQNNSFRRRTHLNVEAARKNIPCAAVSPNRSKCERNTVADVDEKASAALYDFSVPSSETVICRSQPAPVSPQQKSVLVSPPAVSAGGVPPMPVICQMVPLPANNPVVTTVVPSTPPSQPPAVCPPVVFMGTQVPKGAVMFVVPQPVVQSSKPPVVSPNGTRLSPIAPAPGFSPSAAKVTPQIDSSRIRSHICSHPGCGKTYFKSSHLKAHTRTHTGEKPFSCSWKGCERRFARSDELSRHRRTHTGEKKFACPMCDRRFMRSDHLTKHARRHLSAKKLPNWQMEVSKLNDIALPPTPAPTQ

Binder | apparent K (half saturation) (BBX) [nM] | apparent K (half saturation) (FOXL2) [nM] | apparent K (half saturation) (RBPJ) [nM] | apparent K (half saturation) (NFIA) [nM] | apparent K (half saturation) (ZBTB7B) [nM] | apparent K (half saturation) (KLF10) [nM] | apparent K (half saturation) (KLF3) [nM] | apparent K (half saturation) (GLIS2) [nM] | apparent K (half saturation) (SP3) [nM]
TEAD (dsDNA) DNA 1: TCGGGACCCAGGCCTGGAATGTTTCCACC DNA 2: GGTGGAAACATTCCAGGCCTGGGTCCCGA | 390 | 140 | 208 | 119 | – | – | – | – | –
TATA-box (dsDNA) DNA 1: GCGGCGCTCTATATAAGTGGGCAGTG DNA 2: CACTGCCCACTTATATAGAGCGCCGC | 405 | 140 | – | – | 230 | 84.5 | – | – | –
CTCF (dsDNA) DNA 1: TCAGAGTGGCGGCCAGCAGGGGGCGCCCTTGCCAGA DNA 2: TCTGGCAAGGGCGCCCCCTGCTGGCCGCCACTCTGA | 308 | – | 376 | 72.8 | 39.2 | 41.2 | 124 | 15 | 72
SP/KLF wild-type (dsDNA) DNA 1: GAGAGCCCCGCCCCCTGGCT DNA 2: AGCCAGGGGGCGGGGCTCTC | – | – | – | – | – | – | 61.9 | – | 19.3

— publication PMC5916898, “Global profiling of protein–DNA and protein–nucleosome binding affinities using quantitative mass spectrometry”
